# Results taken from paper PMC3947560.
# Target: ETV1 (ER81) 249-477 (UniProt P50549 249-477)
# Assay: EMSA
# Chain of ETV1 (ER81) 249-477 (P50549 249-477): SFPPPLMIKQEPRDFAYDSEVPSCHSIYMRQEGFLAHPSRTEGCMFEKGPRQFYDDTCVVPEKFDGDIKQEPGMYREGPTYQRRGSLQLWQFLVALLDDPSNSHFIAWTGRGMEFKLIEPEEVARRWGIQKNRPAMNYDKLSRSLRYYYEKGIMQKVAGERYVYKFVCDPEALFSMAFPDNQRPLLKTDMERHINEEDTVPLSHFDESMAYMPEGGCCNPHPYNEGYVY
binder,measurement,value
ETS8/9 (PSA enhancer) (dsDNA) DNA 1: CTTTACAAACATCCTTGAAACAACAATCCAGAA DNA 2: TTCTGGATTGTTGTTTCAAGGATGTTTGTAA,binding result,binds
